# T1: Juno (UniProt Q9EQF4 20-222)
# T1 chain: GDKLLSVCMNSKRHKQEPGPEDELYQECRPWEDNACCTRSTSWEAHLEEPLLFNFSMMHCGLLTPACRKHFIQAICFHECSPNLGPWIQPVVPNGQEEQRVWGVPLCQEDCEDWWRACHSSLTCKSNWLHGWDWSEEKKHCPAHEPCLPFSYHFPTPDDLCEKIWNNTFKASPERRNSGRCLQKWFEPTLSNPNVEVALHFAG
# B1: Izumo1 ectodomain (domain or fragment)
# chain: CIKCDQFVTDALKTFENTYLNDHLPHDIHKNVMRMVNHEVSSFGVVTSAEDSYLGAVDENTLEQATWSFLKDLKRITDSDLKGELFIKELLWMLRHQKDIFNNLARQFQKEVLCPNKCGVMSQTLIWCLKCEKQLHICRKSLDCGERHIEVHRSEDLVLDCLLSWHRASKGLTDYSFYRVWENSSETLIAKGKEPYLTKSMVGPEDAGNYRCVLDTINQGHATVIRYDVTVLPPKHSEENQPPNIITQEEHETPVHVTPQTPPGQEPESELYPELHPELYPELIPTVAQNPEKKMKTR
# modifications: N-acetylglucosamine attached to N204 (seen in the crystal structure)
# Target: T1, Juno
# Test: MST
binder,measurement,value
B1,Kd,620 nM

# From publication PMC4963209 (2016)
